The assay concerns the target VPAC1-C37/A-EYFP (Cys37/Ala mutant of VPAC1 fused with enhanced yellow fluorescent protein) (mouse (stated for the cDNA; the primers of Table 1 and residues 31-457 fit human VPAC1)) (UniProt P97751). The assay is described as follows: radioligand binding; competition binding on the cell membrane fraction of CHO cells (50 ug protein/ml): 1 nM [125I]-VIP with or without unlabelled VIP, 60 min at 30°C at equilibrium; nonspecific binding with 2 uM unlabelled peptide; data calibrated by the EYFP fluorescence of the membrane fraction.

The term Kd denotes the concentration at which binding is half-saturated. As to HSDAVFTDNYTRLRKQMAVKKYLNSILN [vasoactive intestinal peptide], the equilibrium dissociation constant (Kd) was found to be 0.42 nM.

(Values after paper PMC5522101.)
